According to patent US20260226152A1 (GlaxoSmithKline, published 2026):
Read-outs that look alike come from different tables or passages of the source.

T1: Human IL-23 (human, UniProt Q9NPF7 20-189; P29460 23-328)
T1 construct: Disulphide-linked p19/p40 heterodimer, recombinant, made in-house; also called recombinant human IL-23; rhIL-23
T1 sequence 1: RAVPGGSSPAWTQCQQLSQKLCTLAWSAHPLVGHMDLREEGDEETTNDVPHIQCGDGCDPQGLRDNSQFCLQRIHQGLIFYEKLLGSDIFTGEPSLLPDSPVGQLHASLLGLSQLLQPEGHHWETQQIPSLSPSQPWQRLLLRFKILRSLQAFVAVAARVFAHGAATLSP
T1 sequence 2: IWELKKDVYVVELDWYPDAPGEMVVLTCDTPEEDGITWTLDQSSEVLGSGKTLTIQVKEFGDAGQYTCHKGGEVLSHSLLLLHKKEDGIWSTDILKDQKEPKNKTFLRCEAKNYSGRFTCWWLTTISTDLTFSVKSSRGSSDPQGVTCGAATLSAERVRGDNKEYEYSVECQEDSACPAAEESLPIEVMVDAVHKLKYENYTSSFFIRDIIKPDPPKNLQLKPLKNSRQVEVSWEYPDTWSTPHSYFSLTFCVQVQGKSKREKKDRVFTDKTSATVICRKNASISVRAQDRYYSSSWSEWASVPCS

T2: Human IL-18 (human, UniProt Q14116 37-193)
T2 sequence: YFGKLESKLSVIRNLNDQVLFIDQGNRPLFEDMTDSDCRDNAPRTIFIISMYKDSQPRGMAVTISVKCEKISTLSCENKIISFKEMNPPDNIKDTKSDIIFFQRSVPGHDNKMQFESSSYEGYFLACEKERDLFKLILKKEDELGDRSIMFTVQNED

T3: Cynomolgus monkey IL-18 (Rhesus monkey (identical to cynomolgus …, UniProt Q9BGI5 37-193))
T3 construct: Bought protein; also called Cyno IL-18; Cynomolgus IL-18
T3 sequence: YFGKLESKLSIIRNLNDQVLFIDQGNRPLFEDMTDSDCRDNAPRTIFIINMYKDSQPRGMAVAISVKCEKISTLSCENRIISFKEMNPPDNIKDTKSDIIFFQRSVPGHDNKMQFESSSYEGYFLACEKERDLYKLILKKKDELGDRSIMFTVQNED


Key:
[1] = target: T1, Human IL-23; experiment: SPR (Biacore), antibody captured on Protein A/G, cytokine as analyte, 25 C
Experimental: (§1) A heterodimeric bsAb, alongside anti-IL-18 and anti-IL-23 common light chain control bispecific antibodies, were assessed for binding to human and cyno IL-18 and IL-23, using the Biacore 8K and T200 (Cytiva) surface plasmon resonance (SPR) instruments. All reagents were generated recombinantly in-house with the exception of Rhesus monkey IL-18 which was purchased from R&D systems (Cat #2548-RM-025/CF). Rhesus and cynomolgus monkey amino acid sequences are identical. Therefore, the protein will be referred to as cynomolgus monkey IL-18.
(§2) Heterodimeric bsAb, anti-IL-18 and anti-IL-23 common light chain bispecific control molecules were assessed for binding to recombinant human and cynomolgus monkey IL-18 and IL-23 using the Biacore 8K and T200 (Cytiva) SPR instruments. The antibodies were captured onto Protein A/G, which was immobilised onto flow cell 2 of 8 channels (Biacore 8K) or flow cells 2, 3 and 4 (Biacore T200) of a CM5 series S sensor chip by primary amine coupling. The IL-18 or IL-23 analytes were passed over the captured antibodies at varying concentrations between 0.04-25 nM. The association phase was for 240 seconds at 30 μl/min, followed by a dissociation step of up to 1200 seconds. A 0 nM (i.e., buffer alone) injection was used to double reference the binding curves. Regeneration of the chip surface between cycles was carried out using 50 mM NaOH. The assay was run at 25° C. in HBS-EP⁺ buffer. Biacore 8K control software version 3.0 was used to run the experiment. Data was analysed using Biacore 8K Insight evaluation software version 3.0. Biacore T200 control software version 1.0 was used to run the experiment. Data was analysed using Biacore T200 evaluation software version 2.0. Affinities and kinetics were determined using the 1:1 kinetic fit inherent to the software where possible. All affinity values generated using both instruments were combined to determine geometric mean values.

[2] = target: T2, Human IL-18; experiment: cell-based or functional assay
[3] = target: T2, Human IL-18; experiment: SPR (Biacore), antibody captured on Protein A/G, cytokine as analyte, 25 C, 1:1 fit, n=1
Experimental: as §1, §2

[4] = target: T2, Human IL-18; experiment: cell-based or functional assay; remark: listed apart in the source
[5] = target: T2, Human IL-18; experiment: cell-based or functional assay; remark: listed apart in the source
[6] = target: T3, Cynomolgus monkey IL-18; experiment: SPR (Biacore 8K/T200), antibody captured on Protein A/G, cytokine as analyte, 25 C, geometric mean of n=3-5
Experimental: as §1, §2

[7] = target: T2, Human IL-18; experiment: as above
Experimental: as §1, §2

[8] = target: T3, Cynomolgus monkey IL-18; experiment: cell-based or functional assay

binding result [1] | IC50 (pM, Mean), neutralisation of human IL-18-induced IFNγ secretion by KG-1 cells [2] [pM] | pIC50 (GeoMean), neutralisation of human IL-18-induced IFNγ secretion by KG-1 cells [2] | Kd [3] [pM] | IC50 (pM, Mean), neutralisation of human IL-18-induced IFNγ secretion by KG-1 cells [4] [pM] | pIC50 (GeoMean), neutralisation of human IL-18-induced IFNγ secretion by KG-1 cells [4] | IC50 nM, inhibition of LPS + IL12-induced IFN-γ in human whole blood [5] [nM] | pIC50, inhibition of LPS + IL12-induced IFN-γ in human whole blood [5] | Kd [6] [pM] | Kd [7] [pM] | IC50 (pM, Mean), neutralisation of cynomolgus IL-18-induced IFNγ secretion by KG-1 cells [8] [pM] | pIC50 (GeoMean), neutralisation of cynomolgus IL-18-induced IFNγ secretion by KG-1 cells [8] | Binder
no binding (tested: 0.04-25 nM analyte) | 52.5 | 10.3 | < 10 | – | – | – | – | – | – | – | – | IL-18 control 5 (antibody, V domains shown, Anti-IL-18 mAb plus Het-mAb Fc mutations of Heterodimeric bsAbs 1-4 and silencing (LAGA) mutations) VH: QVQLVQSGAEVKKPGASVKVSCKVSGEISTGYYFHWVRQAPGKGLEWMGRIDPEDDSTKYAERFKDRVTMTEDTSTDTAYMELSSLRSEDTAVYYCTTWRIYRDSSGRPFYVMDAWGQGTLVTVSS VL: DIQMTQSPSSVSASVGDRVTITCLASEDIYTYLTWYQQKPGKAPKLLIYGANKLQDGVPSRFSGSGSGTDYTLTISSLQPEDFATYYCLQGSKFPLTFGQGTKLEIK
no binding (tested: 0.04-25 nM analyte) | – | – | – | 52.5 | 10.3 | 5.5 | 8.3 | 64 | 67 | 53.7 | 10.3 | IL-18 control 1 (antibody, V domains shown, Anti-IL-18 mAb plus Het-mAb Fc mutations of Heterodimeric bsAbs 1-4, silencing (LAGA) and half-life extending (YTE) mutations; also called anti-IL-18 control 1) VH: QVQLVQSGAEVKKPGASVKVSCKVSGEISTGYYFHWVRQAPGKGLEWMGRIDPEDDSTKYAERFKDRVTMTEDTSTDTAYMELSSLRSEDTAVYYCTTWRIYRDSSGRPFYVMDAWGQGTLVTVSS VL: DIQMTQSPSSVSASVGDRVTITCLASEDIYTYLTWYQQKPGKAPKLLIYGANKLQDGVPSRFSGSGSGTDYTLTISSLQPEDFATYYCLQGSKFPLTFGQGTKLEIK
